Measured values reported in publication PMC10536585, “Negr1-Derived Peptides Trigger ALK Degradation and Halt Neuroblastoma Progression In Vitro and In Vivo” (Pharmaceutics, 2023).
“Also recorded” adds a separate entry of the source. Each block holds one molecule with its values, some of them ahead of it.

Columns and labels:
N2a cells [1] = experiment: MTT assay of N2a cell growth / vitality; format: cell-based, murine; settings: 5 days; for N2a cellular vitality by MTT assay at DIV5: N2a cells 2 × 10^3 cells/cm^2, 3 μM daily, normalized to vehicle (Lorlatinib) or GFP (rNegr1, PepA-1), n = 10; for N2a cellular growth by MTT assay at DIV5: naive N2a cells seeded at 2 × 10^3 cells/cm^2, 100 ng/mL daily, vs. GFP control, n = 10-12
Description: N2a (Neuro2a, ATCC CCL-131), HEK293 (ATCC CRL-1573), U87 MG (ATCC® HTB14), SKMEL5 (ATCC® HTB70), MCF7 ATCC® HTB-22, A549 ATCC® CCL-185, and SHSY5Y (ATCC® CRL 2266™) cells were grown in DMEM high glucose (Gibco, Thermo Fisher Scientific, Waltham, MA, USA) with 10% FBS, 1% penicillin/streptomycin, and 1% glutamine in a humidified atmosphere of 5% CO2 at 37 °C. In the soft-agar assays, we added 0.6% soft agar (Gibco, Thermo Fisher Scientific, Waltham, MA, USA) in media to 2 × 10^3 cell/cm^2 N2a cells to obtain a final concentration of 0.4% agar. We cultured the cells onto a 0.6% soft agar layer. N2a and HEK293 cells were transfected with the different constructs for 48 h using Lipofectamine 2000 (Invitrogen, Thermo Fisher Scientific Waltham, MA, USA). Stable N2a clones expressing murine Negr1 were isolated upon Neomycin selection (1 μg/mL).
We performed the 3-(4,5-dimethylthiazol-2-yl)-2,5-diphenyltetrazolium bromide (MTT) assay to appreciate culture vitality. We cultured N2a cells in a 96-well plate at a concentration of 2 × 10^3 cells/cm^2. The treatment condition is indicated in the Results Section 3. At the end of the treatment, we added the MTT solution to the cell medium at a final concentration of 0.25 mg/mL. The incubation lasted 30 min at 37 °C. Next, we removed the medium and collected the formazan precipitates in DMSO (200 μL). We measured the absorbance at 570 nm using a spectrophotometer (Varioskan LUX, Thermofisher, Waltham, MA, USA) as a proxy for cell viability. We expressed relative cell viability fold over the control condition.

N-MYC = experiment: Western blotting of N-MYC protein level in treated N2a cells; format: cell-based, murine; settings: n = 6; for N-MYC protein level (Western blotting), chronic treatment: 100 ng/mL daily for five days
Description: (§1) We assessed protein level and relative phosphorylation by Western blotting as in [31]. Briefly, upon a wash in PBS, we solubilized cells and tumor specimens in lysis buffer (150 mM NaCl, 50 mM HEPES, 0.5% NP40, 1% sodium-deoxycholate). After 1 h under mild agitation, we clarified the lysate by centrifugation for 20 min at 16,000× g. We performed all experimental procedures at 4 °C. We evaluated protein concentrations via Bradford assay (Bio-Rad, Hercules, CA, USA). For Western blotting experiments, we diluted an equal amount of proteins with 0.25% 5× Laemmli buffer. We separated the samples on 10% SDS-PAGE gels and transferred them onto a nitrocellulose membrane (Sigma-Aldrich) at 80 V for 120 min at 4 °C. Primary antibodies were:
Beta-actin (Santa Cruz Biotechnology, Dallas, TX, USA, sc-47778), ALK (Santa Cruz Biotechnology, Dallas, TX, USA, sc-398791), N-myc (Santa Cruz Biotechnology, Dallas, TX, USA, sc-56729), p44/42 MAPK (Erk1/2) (137F5) Rabbit mAb (Cell Signaling Technology, Danvers, MA, USA), Akt (pan) (11E7) Rabbit mAb (Cell Signaling Technology, Danvers, MA, USA), Phospho-Akt (Ser473) (D9E) XP® Rabbit mAb (Cell Signaling Technology, Danvers, MA, USA), S6 Ribosomal Protein (5G10) Rabbit mAb (Cell Signaling Technology, Danvers, MA, USA), and Negr1 (AF5394) Goat polyclonal (R&D system, Minneapolis, MN, USA). Antibodies were applied overnight in blocking buffer (20 mM Tris, pH 7.4, 150 mM NaCl, 0.1% Tween 20, and 5% nonfat dry milk). We detected proteins using the ECL prime detection system (GE Healthcare, Chicago, IL, USA) with the imaging ChemiDoc Touch system (Bio Rad, Hercules, CA, USA). We quantified the optical density of the specific bands with ImageLab 3.0 software (Bio Rad, Hercules, CA, USA).

N2a cells [2] = experiment: Growth of subcutaneous N2a tumors in nude mice; format: in vivo; settings: 1 million N2a cells s.c. in CD1 nude mice; 2 ug in situ every second day from 100 mm^3 tumor volume; vs. GFP; n = 9 (PepA), n = 5 (PepA-1)
Excerpt: All procedures involving animals were approved by Institutional and National Agencies (authorization 559/2016-PR).

ALK = target: T1, ALK (Mus musculus, UniProt P97793); experiment: Western blotting of ALK protein level in treated N2a cells; format: cell-based, murine; settings: n = 6; for ALK protein level (Western blotting), chronic treatment: 2 × 10^3 cells/cm^2 N2a cells, 100 ng/mL daily for five days, fold over GFP
T1 construct: we evaluated ALK and N-MYC protein expression by Western blotting; endogenous in cells; host or cells: N2a (Neuro2a, ATCC CCL-131)
T1 sequence (P97793 19-1621): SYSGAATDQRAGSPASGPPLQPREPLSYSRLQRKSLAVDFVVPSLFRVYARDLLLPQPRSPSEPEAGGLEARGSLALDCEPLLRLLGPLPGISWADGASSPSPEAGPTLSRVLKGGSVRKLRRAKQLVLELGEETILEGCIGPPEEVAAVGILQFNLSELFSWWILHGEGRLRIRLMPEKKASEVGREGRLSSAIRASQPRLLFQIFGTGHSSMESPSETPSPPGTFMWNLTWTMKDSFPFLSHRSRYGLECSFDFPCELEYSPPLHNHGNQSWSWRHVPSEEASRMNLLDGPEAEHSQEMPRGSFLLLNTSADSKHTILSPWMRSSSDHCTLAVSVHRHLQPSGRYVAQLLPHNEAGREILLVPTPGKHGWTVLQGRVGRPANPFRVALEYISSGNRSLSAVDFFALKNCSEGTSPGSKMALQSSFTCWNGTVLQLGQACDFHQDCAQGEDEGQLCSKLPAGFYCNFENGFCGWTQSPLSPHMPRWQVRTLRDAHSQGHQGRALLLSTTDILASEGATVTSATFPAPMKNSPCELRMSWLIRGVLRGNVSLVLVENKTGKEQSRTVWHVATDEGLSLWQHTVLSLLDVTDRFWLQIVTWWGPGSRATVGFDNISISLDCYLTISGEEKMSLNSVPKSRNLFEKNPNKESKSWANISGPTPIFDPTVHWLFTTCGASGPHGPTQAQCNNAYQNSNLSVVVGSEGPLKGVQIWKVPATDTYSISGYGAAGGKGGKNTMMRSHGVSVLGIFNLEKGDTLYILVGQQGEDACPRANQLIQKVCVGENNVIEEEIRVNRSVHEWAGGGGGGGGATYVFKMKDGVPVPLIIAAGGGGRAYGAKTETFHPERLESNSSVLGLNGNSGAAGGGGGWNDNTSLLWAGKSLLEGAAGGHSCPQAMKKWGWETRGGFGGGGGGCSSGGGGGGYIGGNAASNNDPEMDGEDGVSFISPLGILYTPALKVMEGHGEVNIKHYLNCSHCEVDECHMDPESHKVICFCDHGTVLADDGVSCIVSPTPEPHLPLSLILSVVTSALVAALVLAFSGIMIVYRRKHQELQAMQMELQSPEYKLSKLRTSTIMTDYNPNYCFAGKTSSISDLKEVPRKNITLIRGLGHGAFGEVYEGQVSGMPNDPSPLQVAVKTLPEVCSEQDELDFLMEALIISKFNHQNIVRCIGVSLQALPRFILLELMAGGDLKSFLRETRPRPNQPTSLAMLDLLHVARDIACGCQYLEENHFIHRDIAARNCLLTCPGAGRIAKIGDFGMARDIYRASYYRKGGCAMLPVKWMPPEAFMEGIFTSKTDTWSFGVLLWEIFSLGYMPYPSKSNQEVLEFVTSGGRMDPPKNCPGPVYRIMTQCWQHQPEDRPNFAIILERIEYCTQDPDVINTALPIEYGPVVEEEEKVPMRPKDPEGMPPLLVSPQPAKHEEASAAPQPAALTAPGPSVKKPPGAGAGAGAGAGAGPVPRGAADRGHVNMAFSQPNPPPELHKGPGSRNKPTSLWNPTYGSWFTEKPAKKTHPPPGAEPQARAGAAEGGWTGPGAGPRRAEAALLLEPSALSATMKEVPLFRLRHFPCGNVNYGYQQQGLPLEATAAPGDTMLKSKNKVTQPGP
Description: as §1
Antibodies were applied overnight in blocking buffer (20 mM Tris, pH 7.4, 150 mM NaCl, 0.1% Tween 20, and 5% nonfat dry milk). We detected proteins using the ECL prime detection system (GE Healthcare, Chicago, IL, USA) with the imaging ChemiDoc Touch system (Bio Rad, Hercules, CA, USA). We quantified the optical density of the specific bands with ImageLab 3.0 software (Bio Rad, Hercules, CA, USA).

N-MYC mRNA = experiment: RT-qPCR of N-MYC mRNA level in treated N2a cells; format: cell-based, murine; settings: 5 × 10^3 cells/cm^2 N2a cells, 100 ng/mL, 10 min to 6 h; normalized over housekeeping genes; n = 6
Excerpt: (§2) Total RNA was isolated from cell cultures using a Single Cell RNA Purification Kit (Norgen Thorold, ON, Canada) according to manufacturer’s instruction. After extraction, the RNA concentration was quantified with a NanoDrop 2000C spectrophotometer (Thermo Fisher Scientific, Waltham, MA, USA). After DNAse treatment (Thermo Fisher Scientific, Waltham, MA, USA, according to manufacturer’s protocol), complementary DNA (cDNA) was generated using qRT SuperMix (Bimake). The cDNAs were used for quantitative PCR (qPCR) using iTaq Universal SYBR® Green Supermix and CFX96 RealTime System (BioRad, Hercules, CA, USA) for 40 cycles. We used two independent couples of primers to assess mRNA expression levels (Table 3). All samples were measured as technical duplicates. We calculated mRNA expression levels as the average between the two couple of primers, normalized for the mathematical mean of the relative abundance of actinB and GAPDH (housekeeping genes). Data shown were produced using Bio-Rad CFX Manager 3.1 software and analyzed according to the ddCt method.

ALK mRNA = experiment: RT-qPCR of ALK mRNA level in treated N2a cells; format: cell-based, murine; settings: 5 × 10^3 cells/cm^2 N2a cells, 100 ng/mL, 10 min to 6 h; normalized over housekeeping genes; n = 6
Excerpt: as §2

[3] = 2 × 10^3 cells/cm^2 N2a cells, fold over GFP
[4] = 5 × 10^3 cells/cm^2 N2a cells, 100 ng/mL, 10 min to 6 h, normalized over actin, vs. GFP

Molecule: C[C@H]1Oc2cc(cnc2N)-c2c(nn(C)c2C#N)CN(C)C(=O)c2ccc(F)cc21 [Lorlatinib, reference compound]
- N2a cellular vitality by MTT assay at DIV5 (N2a cells [1]): impaired N2A growth to a similar extent
- N-MYC protein level (Western blotting), chronic treatment at 3 μM (N-MYC; 2 × 10^3 cells/cm^2 N2a cells, 3 μM daily for five days, fold over GFP): strongly reduced

- ALK protein level (Western blotting), chronic treatment (ALK): robust reduction
Molecule: VDFPWAAVDNMLVRKGDTAVLRCYLEDGASKGAWLNRSSIIFAGGDKWSVDPRVSISTLNKRDYSLQIQNVDVTDDGPYTCSVQTQHTPRTMQVHL [PepA, Negr1 first Ig domain, strep-FLAG tagged recombinant protein purified from HEK293 cells]
- Tumor growth (tumor volume, fold over day 1) (N2a cells [2]): robust growth reduction
- N2a cellular growth by MTT assay at DIV5 (N2a cells [1]): significantly reduced N2a proliferation
- N-MYC protein level (Western blotting), chronic treatment (N-MYC; [3]): robust reduction

- ALK protein level (Western blotting), chronic treatment (ALK): did not overtly affect
- ALK protein level (Western blotting), acute treatment (ALK; [4]): reduction
B1: rNegr1: Recombinant Strep-FLAG Negr1 (murine) expressed in and purified from HEK293 cells (protein, UniProt Q80Z24 32-318, looked up)
Neuronal growth regulator 1: VDFPWAAVDNMLVRKGDTAVLRCYLEDGASKGAWLNRSSIIFAGGDKWSVDPRVSISTLNKRDYSLQIQNVDVTDDGPYTCSVQTQHTPRTMQVHLTVQVPPKIYDISNDMTINEGTNVTLTCLATGKPEPVISWRHISPSAKPFENGQYLDIYGITRDQAGEYECSAENDVSFPDVKKVRVIVNFAPTIQEIKSGTVTPGRSGLIRCEGAGVPPPAFEWYKGEKRLFNGQQGIIIQNFSTRSILTVTNVTQEHFGNYTCVAANKLGTTNASLPLNPPSTAQYGITG
modifications: Strep-FLAG tag
notes: Recombinant Strep-FLAG Negr1 (murine) expressed in and purified from HEK293 cells
- N-MYC mRNA level (RT-qPCR) (N-MYC mRNA): light but significant effect
- N2a cellular vitality by MTT assay at DIV5 (N2a cells [1]): impaired N2A growth to a similar extent
- N2a cellular growth by MTT assay at DIV5 (N2a cells [1]): significantly reduced N2a growth; also recorded: significantly reduced N2a proliferation
- N-MYC protein level (Western blotting), chronic treatment (N-MYC; [3]): did not overtly affect
- N-MYC protein level (Western blotting), acute treatment (N-MYC; [4]): reduction
- ALK mRNA level (RT-qPCR) (ALK mRNA): did not notice an overt impact
